Among the data in publication doi:10.1101/2022.11.19.22282342 are Miller Units (β-galactosidase, B2H) values, retold here.

For the experiment, the target named is TYROBP transmembrane domain (TMD), bacterial two-hybrid fusion (UniProt O43914). Put plainly: two-hybrid.
UniProt O43914, sequence (O43914 22-113): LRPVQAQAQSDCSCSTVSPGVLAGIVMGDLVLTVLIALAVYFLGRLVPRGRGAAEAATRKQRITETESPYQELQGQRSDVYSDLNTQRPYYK

Turning to “TREM2 transmembrane domain (TMD), bacterial two-hybrid fusion (from UniProt Q9NZC2 19-230) (domain or fragment)”, the Miller Units (β-galactosidase, B2H) came out at 903 Miller Units.

B1: SIRPβ1 isoform 201 transmembrane domain (TMD), bacterial two-hybrid fusion (domain or fragment)
chain: PLLVALLLGPKLLLVVGVSAIYIC
B1: the Miller Units (β-galactosidase, B2H) came to 111 Miller Units.

B2: SIRPβ1 isoform 202 transmembrane domain (TMD), bacterial two-hybrid fusion (domain or fragment)
chain: PLLIAFLLGPKVLLVVGVSVIYVY
With B2, the Miller Units (β-galactosidase, B2H) came to 94 Miller Units.
